Experiments:
Hsh2 = tested on: T1, Hsh2; test: continuous spectrophotometric assay at […] nm; format: biochemical, Sphingobium sp. Chol11; conditions: 50 mM MOPS pH 7.8, 30 °C, 25% ethanol; dehydration; substrate range 50 µM to 1 mM
T1 construct: tag not reported cut

[1] = tested on: T2, C[C@]12C=CC(=O)C=C1C[C@H](O)[C@@H]1[C@@H]2CC[C@]2(C)C(=O)CC[C@@H]12; test: purified protein; format: biochemical, Sphingobium sp. Chol11; conditions: 50 mM MOPS pH 7.8, 30 °C, 25% ethanol, dehydration, substrate range 50 µM to 1 mM
T2 construct: His-tagged, pET28b(+), E. coli Tuner(DE3), Ni-NTA and desalting gel filtration; tag not reported cut; primers read start MEKLICAL and end AHLDGK before vector C-terminal tag

Compound	Km (Hsh2)	Km [1]	kcat [1]	kcat/Km [1]
C[C@]12C=CC(=O)C=C1C[C@@H](O)[C@@H]1[C@@H]2CC[C@]2(C)C(=O)CC[C@@H]12 [XI, 7α-hydroxy-androsta-1,4-diene-3,17-dione]	250 ± 50 µM	–	–	–
Hsh3 (Nov2c681) (Sphingobium sp.)	–	1260 ± 450 µM	130 ± 30.1 s⁻¹	103000 M⁻¹ s⁻¹

Reference: PMC12175502, “7β-Hydroxysteroid dehydratase Hsh3 eliminates the 7-hydroxy group of the bile salt ursodeoxycholate during degradation by Sphingobium sp. strain Chol11 and other Sphingomonadaceae” (Applied and Environmental Microbiology, 2025)
